± gives the standard deviation of the averaged measurements.
Experiment: total protein half-life in vivo (active degradation + dilution); higher = more stable protein
[1] = E. coli NCM3722 delta-clpP delta-lon delta-hslV, growth: N-lim chemostat, doubling time 6 h
[2] = E. coli NCM3722 delta-clpP, growth: N-lim chemostat, doubling time 6 h
[3] = E. coli NCM3722 delta-hslV, growth: N-lim chemostat, doubling time 6 h
[4] = E. coli NCM3722 delta-smpB, growth: N-lim chemostat, doubling time 6 h
[5] = wild type E. coli NCM3722, growth: C-lim chemostat, doubling time 3 h
[6] = wild type E. coli NCM3722, growth: C-lim chemostat, doubling time 6 h
[7] = wild type E. coli NCM3722, growth: N-lim chemostat, doubling time 6 h
[8] = wild type E. coli NCM3722, growth: N-lim chemostat, doubling time 12 h
[9] = wild type E. coli NCM3722, growth: P-lim chemostat, doubling time 6 h
[10] = wild type E. coli NCM3722, growth: P-lim chemostat, doubling time 12 h
[11] = E. coli NCM3722 delta-lon, growth: N-lim chemostat, doubling time 6 h
[12] = wild type E. coli NCM3722, growth: C-lim chemostat, doubling time 12 h

Row | Sequence | total protein half-life in vivo [1] [h] | total protein half-life in vivo [2] [h] | total protein half-life in vivo [3] [h] | total protein half-life in vivo [4] [h] | total protein half-life in vivo [5] [h] | total protein half-life in vivo [6] [h] | total protein half-life in vivo [7] [h] | total protein half-life in vivo [8] [h] | total protein half-life in vivo [9] [h] | total protein half-life in vivo [10] [h] | total protein half-life in vivo [11] [h] | total protein half-life in vivo [12] [h]
1 | MMDNMQTEAQPTRTRILNAAREIFSENGFHSASMKAICKSCAISPGTLYHHFISKEALIQAIILQDQERALARFREPIEGIHFVDYMVESIVSLTHEAFGQRALVVEIMAEGMRNPQVAAMLKNKHMTITEFVAQRMRDAQQKGEISPDINTAMTSRLLLDLTYGVLADIEAEDLAREASFAQGLRAMIGGILTAS [P0ACT6] | 6.37 ± 1.1 | 5.2 ± 0.53 | 4.39 ± 0.71 | 5.56 ± 0.51 | 3.36 ± 0.77 | 6.053 ± 0.026 | 4.87 ± 0.49 | 9.35 ± 0.28 | 4.64 ± 0.12 | 10.3 ± 0.2 |  | 
2 | MLLAGAIFVLTIVLVIWQPKGLGIGWSATLGAVLALVTGVVHPGDIPVVWNIVWNATAAFIAVIIISLLLDESGFFEWAALHVSRWGNGRGRLLFTWIVLLGAAVAALFANDGAALILTPIVIAMLLALGFSKGTTLAFVMAAGFIADTASLPLIVSNLVNIVSADFFGLGFREYASVMVPVDIAAIVATLVMLHLYFRKDIPQNYDMALLKSPAEAIKDPATFKTGWVVLLLLLVGFFVLEPLGIPVSAIAAVGALILFVVAKRGHAINTGKVLRGAPWQIVIFSLGMYLVVYGLRNAGLTEYLSGVLNVLADNGLWAATLGTGFLTAFLSSIMNNMPTVLVGALSIDGSTASGVIKEAMVYANVIGCDLGPKITPIGSLATLLWLHVLSQKNMTISWGYYFRTGIIMTLPVLFVTLAALALRLSFTL [P0AB93] |  |  | 6.25 |  |  |  | 5.83 | 12.1 |  | 13.8 ± 1.1 |  | 
3 | MTMNSFERRNKIIQLVNEQGTVLVQDLAGVFAASEATIRADLRFLEQKGVVTRFHGGAAKIMSGNSETETQEVGFKERFQLASAPKNRIAQAAVKMIHEGMTDPTHVIWTQA | 5.66 ± 0.27 | 5.64 ± 0.21 | 5.7 ± 0.13 | 6.1 ± 0.52 | 2.9 ± 0.17 | 5.62 ± 0.3 | 5.69 ± 0.26 | 11.3 ± 1.8 | 5.95 ± 0.17 | 11.5 ± 0.23 | 5.59 ± 0.61 | 12.4 ± 2.1
4 | MSQIFAYCRISTLDQTTENQRREIESAGFKIKPQQIIEEHISGSAATSERPGFNRLLARLKCGDQLIVTKLDRLGCNAMDIRKTVEQLTETGIRVHCLALGGIDLTSPTGKMMMQVISAVAEFERDLLLERTHSGIVRARGAGKRFGRPPVLNEEQKQAVFERIKSGVSISAIAREFKTSRQTILRAKAKLQTPDI | 5.84 ± 0.17 |  |  | 1.43 | 1.59 |  |  |  |  |  | 3.81 | 4.26
5 | MNIYTFDFDEIESQEDFYRDFSQTFGLAKDKVRDLDSLWDVLMNDVLPLPLEIEFVHLGEKTRRRFGALILLFDEAEEELEGHLRFNVRH | 4.37 ± 1.1 | 3.85 | 5.5 | 4.41 ± 0.68 | 2.87 | 5.2 | 4.83 ± 0.14 | 10.2 | 4.26 | 10.1 ± 1.3 | 7.32 | 9.22 ± 0.45
6 | MTQVAKKILVTCALPYANGSIHLGHMLEHIQADVWVRYQRMRGHEVNFICADDAHGTPIMLKAQQLGITPEQMIGEMSQEHQTDFAGFNISYDNYHSTHSEENRQLSELIYSRLKENGFIKNRTISQLYDPEKGMFLPDRFVKGTCPKCKSPDQYGDNCEVCGATYSPTELIEPKSVVSGATPVMRDSEHFFFDLPSFSEMLQAWTRSGALQEQVANKMQEWFESGLQQWDISRDAPYFGFEIPNAPGKYFYVWLDAPIGYMGSFKNLCDKRGDSVSFDEYWKKDSTAELYHFIGKDIVYFHSLFWPAMLEGSNFRKPSNLFVHGYVTVNGAKMSKSRGTFIKASTWLNHFDADSLRYYYTAKLSSRIDDIDLNLEDFVQRVNADIVNKVVNLASRNAGFINKRFDGVLASELADPQLYKTFTDAAEVIGEAWESREFGKAVREIMALADLANRYVDEQAPWVVAKQEGRDADLQAICSMGINLFRVLMTYLKPVLPKLTERAEAFLNTELTWDGIQQPLLGHKVNPFKALYNRIDMRQVEALVEASKEEVKAAAAPVTGPLADDPIQETITFDDFAKVDLRVALIENAEFVEGSDKLLRLTLDLGGEKRNVFSGIRSAYPDPQALIGRHTIMVANLAPRKMRFGISEGMVMAAGPGGKDIFLLSPDAGAKPGHQVK | 4.5 ± 0.63 | 4.18 ± 0.33 | 4.16 ± 0.055 | 4.17 ± 0.25 | 3.09 ± 0.24 | 5.54 ± 0.16 | 4.1 ± 0.34 | 6.3 ± 0.071 | 5.51 ± 0.33 | 11.4 ± 0.34 | 4.3651 ± 0.0038 | 9.62 ± 0.28
7 | MDQKLLTDFRSELLDSRFGAKAISTIAESKRFPLHEMRDDVAFQIINDELYLDGNARQNLATFCQTWDDENVHKLMDLSINKNWIDKEEYPQSAAIDLRCVNMVADLWHAPAPKNGQAVGTNTIGSSEACMLGGMAMKWRWRKRMEAAGKPTDKPNLVCGPVQICWHKFARYWDVELREIPMRPGQLFMDPKRMIEACDENTIGVVPTFGVTYTGNYEFPQPLHDALDKFQADTGIDIDMHIDAASGGFLAPFVAPDIVWDFRLPRVKSISASGHKFGLAPLGCGWVIWRDEEALPQELVFNVDYLGGQIGTFAINFSRPAGQVIAQYYEFLRLGREGYTKVQNASYQVAAYLADEIAKLGPYEFICTGRPDEGIPAVCFKLKDGEDPGYTLYDLSERLRLRGWQVPAFTLGGEATDIVVMRIMCRRGFEMDFAELLLEDYKASLKYLSDHPKLQGIAQQNSFKHT | 5.86 ± 0.071 |  |  | 5.91 ± 0.41 | 3.71 | 6.55 ± 0.6 | 5.53 | 9.35 ± 0.68 | 6.024 ± 0.042 | 12.1 ± 1.2 | 5.71 ± 0.19 | > 16
8 | MSTRLTTLSHTSEGHRVSVHYGYDDKGRLTGERQTVENPETGELLWHHETGHAYNEQGLANRVTPDSLPPVEWLTYGSGYLAGMKLGGTPLLEFTRDRLHRETVRSFGSMAGSNAAYKLTSTYTPAGQLQSQHLNSLVYDRDYGWNDNGDLVRISGPRQTREYGYSATGRLESVRTLAPDLDIRIPYATDPAGNRLPDPELHPDSTLTVWPDNRIAEDAHYVYRHDEYGRLTEKTDRIPAGVIRTDDERTHHYHYDSQHRLVFYTRIQHGEPLVESRYLYDPLGRRMAKRVWRRERDLTGWMSLSRKPEVTWYGWDGDRLTTVQTDTTRIQTVYEPGSFTPLIRVETENGEREKAQRRSLAETLQQEGSENGHGVVFPAELVRLLDRLEEEIRADRVSSESRAWLAQCGLTVEQLARQVEPEYTPARKVHFYHCDHRGLPLALISEDGNTAWRGEYDEWGNQLNEENPHHLHQPYRLPGQQHDEESGLYYNRHRHYDPLQGRYITPDPIGLRGGWNMYQYPLNPIQVIDPMGLDAIENMTSGGLIYAVSGVPGLIAANSITNSAYQFGYDMDAIVGGAHNGAADAMRHCYLMCRMTKTFGSTIADVIGKNHEAAGDRQGQPAKERIMDLKNNTVGIACGDFSAKCSDACIEKYNTGQLFGLDGIKADNPIKAKQGSSDASNY | 3.27 |  |  |  |  |  |  |  |  |  |  | 

Source: the supplement of paper PMC11246515
